± gives the standard deviation of the averaged measurements.

Data set [1] is described as follows: PET hydrolysis, aromatic products released after 48 h (umol product/mg enzyme); higher = more PET depolymerization activity. The essentials:
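Reactions ran in sealed plates without shaking for 48 h at 40 or 60 °C. Each held 3.5 mg amorphous PET film or crystalline PET powder, 450 μL buffer and 5 μg (50 μL) of tagless, SUMO-cleaved, nickel-purified candidate enzyme. Buffers were 50 mM NaCitrate at pH 4.5 or 5.5, 50 mM NaPhosphate at pH 6.5 or 7.5, and glycine at pH 8.5. The supernatant's aromatic product, read at 260 and 280 nm against buffer blanks, gives PET hydrolysis activity per mg enzyme.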

The nature of data set [2]: melting temperature (DSF); higher = more thermostable. The essentials: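 Values are melting temperatures from differential scanning fluorimetry. Candidate enzymes were expressed in E. coli C41(DE3), purified on nickel beads and freed by SUMO protease cleavage. In sealed PCR plates on a Bio-Rad CFX96, 45 μL enzyme (0 to 0.3 mg/mL) was combined with 5 μL 5X Sypro Orange. Fluorescence was recorded from 25 °C for 250 cycles, rising 0.3 °C per cycle at a ramp of 0.3 °C/s.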

A short description of data set [3]: purified protein yield per well (BCA); higher = higher soluble expression. The gist of the method: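 Candidate enzymes were produced in E. coli C41(DE3) grown in 2 mL autoinduction cultures containing 100 µg/mL kanamycin, first at 37 °C for 2 h and then at 18 °C for 40 h. After cell lysis, protein was captured on Ni-charged magnetic beads and freed by SUMO protease cleavage on an OT-2 robot. Purified protein yield per well was read with the Pierce Rapid Gold BCA kit. Values under 25 ug (0.1 mg/mL) fall below the detection threshold.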

Setting [4] is: substrate: aFilm, 40 °C, pH 4.5.
Where [5] appears, read: substrate: aFilm, 40 °C, pH 5.5.
[6] abbreviates: substrate: aFilm, 40 °C, pH 6.5.
The mark [7] stands for this setting: substrate: aFilm, 40 °C, pH 7.5.
Setting [8] is: substrate: aFilm, 60 °C, pH 4.5.
Where [9] appears, read: substrate: aFilm, 60 °C, pH 5.5.
[10] abbreviates: substrate: aFilm, 60 °C, pH 6.5.
[11] abbreviates: substrate: aFilm, 60 °C, pH 7.5.
Where [12] appears, read: substrate: cryPow, 40 °C, pH 4.5.
Where [13] appears, read: substrate: cryPow, 40 °C, pH 5.5.
Where [14] appears, read: substrate: cryPow, 40 °C, pH 6.5.
Where [15] appears, read: substrate: cryPow, 40 °C, pH 7.5.
Where [16] appears, read: substrate: cryPow, 60 °C, pH 4.5.
Where [17] appears, read: substrate: cryPow, 60 °C, pH 5.5.
Where [18] appears, read: substrate: cryPow, 60 °C, pH 6.5.
[19] abbreviates: substrate: cryPow, 60 °C, pH 7.5.

“DSPYQRGPDPTLASVAATRGPFATTQATVPAGNGFNGGFVYYPTDTSLGTWGAVAIVPGYSALFANEEAWMGPWLASFGFVVLGIETNSRTDGADARATQLLAGLDYLTRTSPVRSRVDANRLGVMGHSAGGAGTLLAALRRPSLKTAVGLAPGTPGNNLNMSTTQVPTLLLSGQNDGTVTPSYVQGIYNTLPATVEHAWAELAGNDHLSFTRSNPTEMRLLIPWLKIFLDSDTRYTQFLCPLADSTGVSRYSSTCPLVPSGGPTPPPTTTPPPPTTTPPPTSTPPPPTTTPPPTTPPAGTACTATYRTVNSWSGGFQAEVTVTAGSTATDGWTVRWNLGAGQSVSQVWNGTLSTSGTTATVRNAAYNGTLAPGTSTTFGFLGSGTPSSPSPTCTSP [ESM011]”: the PET hydrolysis in data set [1] (setting [4]), in data set [1] (setting [5]), in data set [1] (setting [6]), in data set [1] (setting [7]), in data set [1] (setting [8]) and in data set [1] (setting [9]) was below 3 in each case. For the same sequence, the PET hydrolysis in data set [1] (setting [10]), in data set [1] (setting [11]), in data set [1] (setting [12]), in data set [1] (setting [13]), in data set [1] (setting [14]) and in data set [1] (setting [15]) was below 3 each time. Besides, the PET hydrolysis in data set [1] (setting [16]), in data set [1] (setting [17]), in data set [1] (setting [18]) and in data set [1] (setting [19]) was below 3 in each case. This sequence gave a melting temperature in data set [2] of 62.2 C. Moreover, the “purified protein yield per well” value in data set [3] worked out at 240 µg.
For the sequence “DVNPFQRGPDPTAAGVAAARGPFATAQVTVPAGNGFGGGVVYYPTDTSQGTFGAIAIAPGYGTAWSYYAWQGPRLASFGFVVIGIETNTLNDYADARAAQLLAALDWLVTSSPVRDRVDRNRLAVGGHSMGGGGALLAAIQRPSLMTAIGMAPYVPGGDLSGIRIPTVLFAGQTDGTVTPSYALSAYTTIPGSVERAYVEIANEGHGFPAGGGGGNSGAFARTEMIWMKLFIDKDTRYAPFLCPSLSNMNGISRYQASCPLDPPGGTTPTPSATPTSSPTSTPTSTPSATSALRGAGSSRCLDVPGASQTNGTQLQIWDCNGQANQRWTSTSAGELRVYGGKCLDVNGAGTADGTSVIIWDCNGQNNQKWRLNSDGSITAVGANKCLDVSGAGTANGTKVQIWTCNGQANQRWTRT [ESM026]”, the PET hydrolysis in data set [1] (setting [4]), in data set [1] (setting [5]), in data set [1] (setting [6]), in data set [1] (setting [7]), in data set [1] (setting [8]) and in data set [1] (setting [9]) was below 3 in each case. The PET hydrolysis in data set [1] (setting [10]) was below 3; in data set [1] (setting [11]), below 3; in data set [1] (setting [12]), below 3; in data set [1] (setting [13]), 4.5 ± 0.71; in data set [1] (setting [14]), 8.5 ± 0.71; in data set [1] (setting [15]), 9.5 ± 0.71. The PET hydrolysis in data set [1] (setting [16]), in data set [1] (setting [17]), in data set [1] (setting [18]) and in data set [1] (setting [19]) was below 3 each time. In data set [2], this sequence came in with a melting temperature of 65.8 C. Further, in data set [3], the “purified protein yield per well” value was 305 µg.
Regarding “EEPASGYQRGPAPTTSSIESSRGPFSTSQVSISGLSANGFGGADVYYPTDTSQGTFGAVAISPGYTARKSSMAWLASRLASQGFVVINIDTNTTSDQPASRGRQLLAALDQVTKDSRVANRIDPTRLAVVGHSMGGGGALEASRSRPSLQAAIPLTPWNTTKSFSGNQVPTLVVGAERDTVASVRSHAEPFYRSLPSAPGKAYLELAGASHFAPNTSNTTIAKHSIAWLKLFVDNDERYRQFVCPGPTSDRAVSDYQNTCSSFTP [DP053]”, the PET hydrolysis was below 3 in data set [1] (setting [5]); below 3 in data set [1] (setting [6]); below 3 in data set [1] (setting [7]); below 3 in data set [1] (substrate: aFilm, 40 °C, pH 8.5); below 3 in data set [1] (setting [9]); below 3 in data set [1] (setting [10]). Moreover, the PET hydrolysis was below 3 in data set [1] (setting [11]); below 3 in data set [1] (substrate: aFilm, 60 °C, pH 8.5); below 3 in data set [1] (setting [13]); below 3 in data set [1] (setting [14]); below 3 in data set [1] (setting [15]); below 3 in data set [1] (substrate: cryPow, 40 °C, pH 8.5). The PET hydrolysis in data set [1] (setting [17]) is below 3; in data set [1] (setting [18]), below 3; in data set [1] (setting [19]) it was below 3; in data set [1] (substrate: cryPow, 60 °C, pH 8.5) it was below 3. The melting temperature in data set [2] amounted to 42.7 C. In addition, the “purified protein yield per well” value in data set [3] amounted to 235 µg.
On to “ENAIINGTYSLIVTQSGKALDTSQWGTIDGTNITLNDYWGGESQKFIITPVDGIWHRITPVIAPDQAFDVSKCSPNVGANIQTWSYEGGACQQFRFAETGNGTYQIITRGTDMSLNVNNLSEENDTNVMQSTSTGKENQIFTLRRHAESHISGNCPDGAICRDEEAPGLYDGKGPYNVRSYELPGAYVTLPATARVYYPANAEPPYSGIVFCPPFMTKQIAFAAWGPWFASHGMVLVTMDTTTIFDQVTARDNQQWRVVKALRRENTRLGSPLRGKLDTDKIGIMGWSMGGGASWINAGKHRDELKTVISLAGHNMTAWYNTDIYSWYSPEELLDAAYASGRLIKIPALIINGALDTTILGGLGQSDGVYRSISNTPKVLAVLGLAGHFAWGYPTQAGRGVASLVLAFEKTFLDGDTRWAPYIQKPSAPMRKWRTADLP [TEP050]”, for which the PET hydrolysis in data set [1] (setting [12]), in data set [1] (setting [13]), in data set [1] (setting [14]), in data set [1] (setting [15]), in data set [1] (setting [16]) and in data set [1] (setting [17]) was below 3 in each case. Besides, the PET hydrolysis in data set [1] (setting [18]) and in data set [1] (setting [19]) was below 3 each time. Moreover, in data set [2], the melting temperature amounted to 46.3 C. In addition, the “purified protein yield per well” value in data set [3] is 60.6 µg.
Turning to “ETEYRKGPDPTEATVTAALGPFATASVSVPSSVAGFGGGVIHYPTDTSQGTFGAVAVAPGFLGSSANYAWMGPRLASQGFVVFLINTDSRLDQPPSRGDQLLAALDYLVTSSSVRARIDASRLAVAGHSMGGGGTLEAATDRPGLQAAIPLQPWHTVKSWPNVQVPTLIIGAENDTTAPVASHAEPFYVSIPAAAEKAYLELNNAEHRVGTAGDTTQAKFMIVWLKRYVDNDTRYEQFICPPPPAPSSEIQEYRNTCPG [TEP171]”, the PET hydrolysis in data set [1] (setting [12]), in data set [1] (setting [13]), in data set [1] (setting [14]), in data set [1] (setting [15]), in data set [1] (setting [16]) and in data set [1] (setting [17]) was below 3 each time. The PET hydrolysis in data set [1] (setting [18]) and in data set [1] (setting [19]) was below 3 each time. Also, in data set [2], the melting temperature is 44.2 C. For the same sequence, the “purified protein yield per well” value in data set [3] came out at 59.3 µg.

(Values after the supplement of paper PMC12455559.)
